In publication PMC12144448:

Biological target: Drosophila CMP-sialic acid synthetase (CSAS), wild-type, 3xFLAG-tagged (Drosophila)
Experiment: SEC; clarified lysate of flies expressing CSAS-FLAG on a calibrated Superdex 75 10/30 HR column; 150 mM NaCl in 20 mM potassium phosphate pH 6.8; fractions analysed by FLAG Western blot

stoichiometry N: 2
Substance: Drosophila CMP-sialic acid synthetase (CSAS), wild-type, 3xFLAG-tagged (enzyme)
